Patent US12338268B2, “Compositions and methods for treating protein aggregation-associated diseases” (The Board of Trustees of the Leland Stanford Junior …, priority 2019, dated 2025)

Tests used:
Aβ40 = biological target: T1, Aβ40 (Homo sapiens, UniProt P05067); assay: Chemical crosslinking (BS3) and mass spectrometry of NAC-Aβ40 complexes; assay type: binding; conditions: NAC and Aβ40 both 18 μM, 37° C. 2 h
T1 construct: Aβ40 peptide was expressed and purified as described previously; made in house; host or cells: E. coli BL21 (DE3)
Protocol: Aβ40 (18 μM) was incubated with purified NAC in a 1:1 molar ratio in Aβ aggregation buffer (20 mM sodium phosphate pH 7.5, 0.2 mM EDTA, 0.01% (w/v) NaN3) at 37° C. for 2 h. BS^3-h^12d^12 was added to the proteins at 20× molar excess and incubated for 30 min at 37° C. before quenching with 50 mM NH4HCO3. Crosslinked samples were gel-filtrated using a Superdex 75 column (GE Healthcare) and fractions containing crosslinked Aβ40-NAC complexes subjected to co-immunoprecipitation using Aβ antibody 6E10 (Biozol). Captured proteins were denatured with 1×SDS sample buffer under non-reducing conditions to avoid splitting of the antibody in heavy and light chains.
Gel pieces containing the crosslinked complexes were washed with 25 mM ammonium bicarbonate (pH 7.8) for 1 h with shaking. The solution was removed and the pieces destained three times with 25 mM ammonium bicarbonate in 60% acetonitrile. Gel pieces were dehydrated with 100% acetonitrile for 10 min and left to air-dry in a laminar flowhood for 1 h. Rehydration of the gel pieces was achieved by adding 0.1 mg/ml trypsin solution and incubating the samples on ice for 30 min. Excess trypsin was removed and the samples were incubated at 37° C. and 1000 rpm overnight. […] The extracts were pooled and concentrated using a SpeedVac before being analyzed using a nanoACQUITY LC-system coupled to a Synapt HDMS G2Si mass spectrometer. […]

FlucDM-EGFP = biological target: T2, FlucDM-EGFP (Photinus pyralis, UniProt P08659, R188Q/R261Q); assay: FlucDM-EGFP aggregation after heat-shock in C. elegans; assay type: in vivo; conditions: overexpressed in muscle cells; heat-shock 1 h, 33° C.; 24 h recovery at 20° C.
T2 construct: expressed in transfected cells; host or cells: C. elegans muscle cells (transgenic strain, unc-54 promoter)
T2 sequence (P08659 whole entry R188Q/R261Q): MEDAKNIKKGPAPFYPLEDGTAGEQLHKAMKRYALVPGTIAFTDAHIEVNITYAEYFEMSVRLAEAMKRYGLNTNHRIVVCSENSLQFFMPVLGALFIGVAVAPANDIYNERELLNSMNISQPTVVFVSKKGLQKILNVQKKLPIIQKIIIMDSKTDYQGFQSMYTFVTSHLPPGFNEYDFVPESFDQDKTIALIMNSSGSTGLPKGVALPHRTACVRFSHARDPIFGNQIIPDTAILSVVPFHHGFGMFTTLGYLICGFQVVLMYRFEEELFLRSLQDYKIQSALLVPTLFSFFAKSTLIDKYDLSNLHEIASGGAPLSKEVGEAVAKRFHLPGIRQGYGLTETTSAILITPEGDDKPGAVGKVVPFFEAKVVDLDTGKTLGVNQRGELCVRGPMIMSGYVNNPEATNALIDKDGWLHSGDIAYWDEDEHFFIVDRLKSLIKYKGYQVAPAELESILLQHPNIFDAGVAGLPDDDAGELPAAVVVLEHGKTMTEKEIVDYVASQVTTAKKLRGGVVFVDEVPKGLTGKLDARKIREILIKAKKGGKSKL
Protocol: We further investigated NAC activity on luciferase refolding in vivo using a C. elegans strain expressing a structurally destabilized version of luciferase fused to EGFP (FlucDM-EGFP) in muscle cells (Gupta et al., 2011). This protein is soluble at moderate temperature but aggregates upon heat stress. After heat-shock (1 h, 33° C.) of worms, FlucDM-EGFP formed large punctate aggregates which were still evident in control animals after 24 h recovery at 20° C. (FIG. 4B, “ev”). […] Thus, efficient luciferase refolding by NAC depends on N-βNAC, in vitro and in vivo.
Worms were cultured according to standard techniques with E. coli OP50 as food source (Brenner, 1974). Transgenic strains were generated using standard microinjection protocols (Mello and Fire, 1995). Constructs for overexpression of NAC in body wall muscles were generated by cloning the coding sequences of icd-1 (βNAC) and icd-2 (αNAC) into a vector containing the myo-3 promoter and the unc-54 3′-untranslated region (UTR). The NAC genes were N-terminally tagged with 3×FLAG. Mutant NAC constructs were generated by standard mutagenesis protocols. AM140 (unc-54p::Q35::YFP) and FlucDM-EGFP (unc-54p::luciferase::GFP) worms were injected with 25 ng/μl of each NAC plasmid together with myo-2p::mCherry (2.5 ng/μl) and DNA ladder (100 ng/μl, GeneRuler 1 kb, Thermo Scientific). […]

[1] = biological target: T3, mutant Huntingtin exon 1 (mHttQ51) (Homo sapiens, UniProt P42858, INS38QQQQQQQQQQQQQQQQQQQQQQQQQQQQQQQ); assay: In vitro filter trap aggregation assay of mutant Huntingtin exon 1; assay type: biochemical
T3 construct: mutant Huntingtin exon 1 containing a pathogenic stretch of 51 glutamines (mHttQ51); GST (N, cleaved yes); made in house; host or cells: E. coli Rosetta 2(DE3) pLysS
T3 sequence (P42858 with tags, fused parts or gaps with the stated changes limits assumed): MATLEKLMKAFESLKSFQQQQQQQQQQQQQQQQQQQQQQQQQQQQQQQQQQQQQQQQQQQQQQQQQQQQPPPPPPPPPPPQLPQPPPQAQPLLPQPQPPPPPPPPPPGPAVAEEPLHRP
In short: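 mHttQ51 and PolyQ51 (3 μM) aggregated at 30 °C in TEV buffer with 0.044 U/μl acTEV, plus ovalbumin or NAC variants. AtxQ78 (30 μM) aggregated at 37 °C in phosphate buffer pH 7.5 with 2 mM DTT. Time-point samples were SDS-boiled, filter-trapped and probed with anti-S-tag (mHttQ51, PolyQ51) or anti-His-tag (AtxQ78).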

B1: NAC: nascent polypeptide-associated complex, heterodimer of αNAC and βNAC; species not given at the place (C. elegans icd-1/icd-2 when overexpressed in worms) (protein)
chain 1: MTGSTETRQKEVKEPQVDVSDDSDNEAVEQELTEEQRRVAEAAGLGDHIDKQAKQSRSEKKARKLFSKLGLKQVTGVSRVCIRKSKNILFVINKPDVFKSPGSDTYIIFGEAKIEDLTQHAQMSAIENLKPTREAPQLKTVEEDENEDVEEDSTGIEEKDIELVISQANTTRNKAIRALKEADNDIVNAIMSLTM
chain 2: MMDSKAIAERIKKLQAQQEHVRIGGKGTPRRKKKVIHKTAAADDKKLQSNLKKLSVTNIPGIEEVNMIKDDGTVIHFNNPKVQTSVPANTFSVTGSADNKQITEMLPGILNQLGPESLTHLKKLANNVTKLGPDGKGEDEDVPELVGDFDAASKNETKADEQ
Aβ40
  interaction with Aβ40 (crosslinking-MS): interaction of Aβ40 with the N-terminal domains of NAC
FlucDM-EGFP
  FlucDM-EGFP aggregates after heat-shock and recovery: fully revert back to diffuse GFP signal
[1]; 1×, 5× or 10× molar excess of human NAC
  concentration dependence of mHttQ51 aggregation suppression: concentration dependent
[1]; 6-hour time delay between initiation of aggregation and addition, 5× molar excess
  disaggregation of preformed mHttQ51 aggregates: did not disaggregate preformed mHttQ51 aggregates
